Common to all, as to assay: cell-based or functional assay
One experiment has as its target T1, CCR1 (UniProt P32246 1-355).
T1 sequence (looked up): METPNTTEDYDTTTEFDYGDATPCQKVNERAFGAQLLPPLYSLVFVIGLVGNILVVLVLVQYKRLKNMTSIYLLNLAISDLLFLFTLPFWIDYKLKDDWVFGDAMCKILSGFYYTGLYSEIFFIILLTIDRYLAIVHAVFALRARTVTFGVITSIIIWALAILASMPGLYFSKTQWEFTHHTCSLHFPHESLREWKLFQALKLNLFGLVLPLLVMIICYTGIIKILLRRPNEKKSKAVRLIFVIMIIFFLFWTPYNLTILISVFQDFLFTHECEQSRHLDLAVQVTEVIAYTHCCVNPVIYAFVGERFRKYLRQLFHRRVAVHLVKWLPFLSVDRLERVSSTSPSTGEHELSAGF

The target in a further experiment is T2, ADRA1B (UniProt P35368 1-520).
T2 sequence (looked up): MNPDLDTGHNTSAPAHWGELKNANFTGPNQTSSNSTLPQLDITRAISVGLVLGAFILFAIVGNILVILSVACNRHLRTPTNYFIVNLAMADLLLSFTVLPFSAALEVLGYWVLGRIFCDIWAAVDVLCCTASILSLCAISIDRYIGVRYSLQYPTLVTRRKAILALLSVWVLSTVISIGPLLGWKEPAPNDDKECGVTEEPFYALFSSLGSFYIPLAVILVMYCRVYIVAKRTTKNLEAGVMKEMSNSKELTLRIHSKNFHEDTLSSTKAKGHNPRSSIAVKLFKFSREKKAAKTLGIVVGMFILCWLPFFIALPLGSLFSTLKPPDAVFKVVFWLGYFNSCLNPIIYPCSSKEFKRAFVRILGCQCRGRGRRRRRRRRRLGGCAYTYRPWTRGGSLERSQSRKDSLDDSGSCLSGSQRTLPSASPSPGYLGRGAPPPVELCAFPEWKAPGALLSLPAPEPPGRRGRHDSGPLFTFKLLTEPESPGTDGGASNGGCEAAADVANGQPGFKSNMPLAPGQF

In the next experiment the target is LHCGR (UniProt P22888 27-699).
For another experiment, the target named is EDG5 (UniProt O95136 1-353).
The next experiment deals with T3, CALCR (UniProt P30988 25-474, limits assumed).
T3 sequence (looked up): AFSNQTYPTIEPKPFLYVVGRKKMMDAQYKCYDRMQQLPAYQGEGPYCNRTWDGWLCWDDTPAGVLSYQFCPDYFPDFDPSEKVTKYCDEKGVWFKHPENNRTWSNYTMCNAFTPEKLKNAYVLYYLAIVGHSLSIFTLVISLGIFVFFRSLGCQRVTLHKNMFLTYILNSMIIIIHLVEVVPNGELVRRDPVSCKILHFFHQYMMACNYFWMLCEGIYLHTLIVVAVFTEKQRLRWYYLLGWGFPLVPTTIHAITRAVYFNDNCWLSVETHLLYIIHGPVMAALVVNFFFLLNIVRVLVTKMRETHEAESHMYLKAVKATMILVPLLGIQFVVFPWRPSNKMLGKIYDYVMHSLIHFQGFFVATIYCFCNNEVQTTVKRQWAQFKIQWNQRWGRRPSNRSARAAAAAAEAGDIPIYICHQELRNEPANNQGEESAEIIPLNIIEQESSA

For the next experiment, the target named is T4, NMU1R (UniProt Q9HB89 1-426, limits assumed).
T4 sequence (looked up): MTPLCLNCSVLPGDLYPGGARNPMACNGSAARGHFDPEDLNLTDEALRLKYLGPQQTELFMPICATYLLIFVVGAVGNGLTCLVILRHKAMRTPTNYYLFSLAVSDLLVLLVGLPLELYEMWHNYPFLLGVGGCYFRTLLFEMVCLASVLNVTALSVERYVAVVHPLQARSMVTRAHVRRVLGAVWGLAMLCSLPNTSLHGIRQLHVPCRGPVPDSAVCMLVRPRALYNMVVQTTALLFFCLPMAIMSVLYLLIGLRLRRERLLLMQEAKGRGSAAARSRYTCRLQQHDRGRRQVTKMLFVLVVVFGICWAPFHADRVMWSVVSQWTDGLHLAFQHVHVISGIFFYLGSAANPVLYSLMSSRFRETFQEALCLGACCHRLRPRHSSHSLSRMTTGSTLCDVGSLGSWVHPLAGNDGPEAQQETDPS

The next experiment has as its target T5, GPR1 (UniProt P46091 1-355).
T5 sequence (looked up): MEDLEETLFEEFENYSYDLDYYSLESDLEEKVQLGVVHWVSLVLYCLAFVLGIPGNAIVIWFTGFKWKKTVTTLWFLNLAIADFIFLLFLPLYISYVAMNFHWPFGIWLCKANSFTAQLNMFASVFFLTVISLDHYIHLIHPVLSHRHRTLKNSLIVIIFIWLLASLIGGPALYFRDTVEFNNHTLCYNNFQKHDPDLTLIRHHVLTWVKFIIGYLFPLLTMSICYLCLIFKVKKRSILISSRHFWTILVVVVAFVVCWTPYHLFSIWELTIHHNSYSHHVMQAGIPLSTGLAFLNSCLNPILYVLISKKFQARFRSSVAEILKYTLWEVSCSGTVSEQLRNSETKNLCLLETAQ

The target in the next experiment is T6, GPR103 (UniProt Q96P65 1-431).
T6 sequence (looked up): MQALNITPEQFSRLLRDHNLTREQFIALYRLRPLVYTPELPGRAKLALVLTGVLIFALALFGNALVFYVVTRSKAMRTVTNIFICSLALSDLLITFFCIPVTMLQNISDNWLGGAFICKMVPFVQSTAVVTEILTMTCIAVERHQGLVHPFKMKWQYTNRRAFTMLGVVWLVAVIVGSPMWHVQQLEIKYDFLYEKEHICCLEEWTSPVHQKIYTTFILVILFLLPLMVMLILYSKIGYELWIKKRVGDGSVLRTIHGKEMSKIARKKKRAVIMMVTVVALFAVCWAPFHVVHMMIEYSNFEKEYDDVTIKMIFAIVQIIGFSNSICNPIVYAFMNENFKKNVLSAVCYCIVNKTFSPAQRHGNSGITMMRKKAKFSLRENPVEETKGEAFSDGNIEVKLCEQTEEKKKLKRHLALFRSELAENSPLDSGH

The values below come from patent publication US20260184748A1 (University of Pennsylvania, published 2026).

Where no end group is shown, it is not given here.

Sequence of LHCGR (P22888 27-699 limits assumed): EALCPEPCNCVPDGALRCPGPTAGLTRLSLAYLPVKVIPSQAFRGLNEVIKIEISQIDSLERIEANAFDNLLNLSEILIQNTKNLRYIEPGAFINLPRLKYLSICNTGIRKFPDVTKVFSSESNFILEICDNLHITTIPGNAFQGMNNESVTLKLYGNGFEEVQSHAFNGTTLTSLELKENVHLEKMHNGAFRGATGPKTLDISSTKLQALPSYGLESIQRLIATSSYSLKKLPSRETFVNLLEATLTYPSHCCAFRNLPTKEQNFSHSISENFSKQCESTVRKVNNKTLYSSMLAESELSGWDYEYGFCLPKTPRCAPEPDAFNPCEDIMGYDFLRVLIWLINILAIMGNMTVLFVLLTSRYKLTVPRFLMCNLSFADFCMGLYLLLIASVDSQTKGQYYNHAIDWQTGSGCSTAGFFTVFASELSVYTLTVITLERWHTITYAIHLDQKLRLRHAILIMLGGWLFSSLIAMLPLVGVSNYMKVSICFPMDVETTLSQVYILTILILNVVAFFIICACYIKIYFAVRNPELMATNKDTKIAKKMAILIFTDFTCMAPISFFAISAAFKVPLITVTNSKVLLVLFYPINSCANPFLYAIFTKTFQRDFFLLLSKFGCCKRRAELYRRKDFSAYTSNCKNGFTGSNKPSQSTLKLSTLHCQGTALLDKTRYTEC
Sequence of EDG5 (O95136 whole entry): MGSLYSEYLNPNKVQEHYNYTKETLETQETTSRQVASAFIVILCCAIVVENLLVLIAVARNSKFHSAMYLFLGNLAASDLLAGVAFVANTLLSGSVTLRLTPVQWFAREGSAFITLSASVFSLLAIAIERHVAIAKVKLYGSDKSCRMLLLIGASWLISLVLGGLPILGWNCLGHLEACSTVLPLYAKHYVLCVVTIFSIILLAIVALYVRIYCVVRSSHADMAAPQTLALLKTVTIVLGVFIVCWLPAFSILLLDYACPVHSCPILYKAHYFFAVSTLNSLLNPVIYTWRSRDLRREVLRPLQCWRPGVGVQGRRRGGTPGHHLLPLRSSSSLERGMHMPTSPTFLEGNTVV

Turning to QATVGDVNTDRPGLLDLK (also: synthesised on Rink amide resin, C-terminal amide not given here outright) [octadecaneuropeptide (ODN)], the “% Activity, arrestin, antagonist mode, 2.5 uM” value is -5.4% in the experiment with CCR1; 0.1% in the experiment with ADRA1B; 7.2% in the experiment with LHCGR; -11.2% in the experiment with EDG5; -22.3% with CALCR; -34.2% with NMU1R. Also, the “% Activity, arrestin, antagonist mode, 2.5 uM” value with GPR1 was -1.3%; with GPR103, 14.6%.
